# Source: patent publication US11787850B2, “Peptidic TGF-beta antagonists” (priority 2015, dated 2023)
# Legend:
# [1] = Aggregation assay: Microcon 100 kDa filtration, Tricine SDS-PAGE, silver staining; format: physicochemical; conditions: for aggregation state (aggregated versus soluble fraction): 50 mM Tris-HCl pH 7.0, 2 hrs at 4° C., 100 kDa cut-off; for effect of DMSO treatment on aggregation: 0.5% DMSO for 2 hrs at 4° C.
# Description: Peptide X (X, 40 amino acids) and P16 (16 amino acids) were left untreated (−) or treated with 0.5% DMSO (+) for 2 hrs at 4° C. The aggregated and non-aggregated soluble fractions were then separated using a Microcon™ centrifugal filtration device (Millipore), with a molecular weight cut-off of 100 kDa. This device allows passage of molecules <100 kDa through the filter but retains larger molecules (aggregates). The aggregated (FIG. 1A—left panel) and soluble (FIG. 1B—right panel) fractions were then separated by 17% Tricine-SDS gel electrophoresis and peptides detected by silver staining. In the conditions tested, multiple bands with various staining intensities were detected in peptide X aggregated fraction and two of these bands were decreased with DMSO treatment (A—left panel, arrows) leading to an increase in the amount of soluble peptide X (B—right panel, arrow, lane 2 versus 3). […] (A-B) Lane 1: Molecular weight marker. Lanes 2-5: samples.
# Aggregation assay. Soluble peptides were separated from aggregates and precipitates by filtration. The molecular weight cut-off of the filter was chosen such that soluble protein was allowed to pass through the filter, while aggregate forms were retained. Peptide X and P16 previously dissolved in 50 mM Tris-HCl (pH=7.0) were left untreated or treated with 0.5% dimethyl sulfoxide (DMSO) for 2 hours at 4° C. Soluble protein was then separated from aggregated protein using a Microcon™ concentrator (Millipore), with a molecular weight cut-off of 100 kDa. The Microcon was spun in a desktop centrifuge at 16,000×g for 15 min. Aggregated protein retained on the membrane was resuspended in H2O, pipetting repeatedly across the membrane to ensure that as much protein as possible was removed. Aliquots of soluble protein and aggregated protein were each mixed with 5× sample buffer (250 mM Tris-HCl, 40% glycerol, 140 mM SDS, 0.6 M β-mercaptoethanol, pH 6.8) and heated to 85-90° C. for 10 min prior to Tricine SDS-PAGE. Samples were analyzed by 17% Tricine SDS-PAGE and peptides visualized by silver staining. Aggrescan Analysis
# Peptide X (X, 40 amino acids) and P16 (16 amino acids) were left untreated (−) or treated with 0.5% DMSO (+) for 2 hrs at 4° C. The aggregated and non-aggregated (soluble) fractions were then separated using a Microcon centrifugal filtration device (Millipore), with a molecular weight cut-off of 100 kDa. This device allows passage of molecules less than 100 kDa through the filter but retains larger molecules (aggregates). The aggregated and soluble fractions were then separated by 17% Tricine-SDS gel electrophoresis and peptides visualized by silver staining.
# [2] = tested on: TGF-β1-induced Smad3-driven (CAGA12-lux) transcriptional activity; experiment: Luciferase reporter assay in HEK293-(CAGA)12 cells; format: cell-based; conditions: 100 pM TGF-β1, 18 hours; for inhibition of TGF-β1-induced CAGA12-lux activity, peptide pre-treated with DMSO: 0.5% DMSO pre-treatment (FIG. 8); for inhibition of TGF-β1-induced CAGA12-lux activity, peptide in Tris buffer left untreated: no DMSO (FIG. 8)
# Description: FIGS. 5A and 5B illustrate that some small molecular weight CD109-based peptides (Peptide A, P28, P21 and […]) inhibit TGF-β1-induced Smad3-driven transcriptional activity. […] Cell lysates were analyzed for luciferase activity and data are expressed as mean±standard deviation of relative light units (RLU). […] Under the conditions tested, peptide A, P28, P21 and P16 inhibited TGF-β1-induced transcriptional (CAGA12-lux) activity.
# FIG. 6 illustrates that the small molecular weight CD109-based peptide P16 (but not P16-2, P11 or X-4) inhibit TGF-β1-induced Smad3-driven transcriptional activity. HEK293 cells stably transfected with the Smad3-responsive CAGA12-lux luciferase reporter were treated for 18 hours without (−) or with (+) […] TGF-β1 in the presence or absence of 10 nM of P16-2 (16 aa scrambled control), P11 (11 aa sequence), P16 (16 aa), X-4 (11 aa) or Tris-buffer (buffer control) as indicated. Cell lysates were analyzed for luciferase activity and data are expressed as mean±standard deviation of luciferase activity. Results are shown as luciferase activity for the peptides used.
# FIG. 8 illustrates that DMSO treatment enhances the TGF-β inhibitory activity of Peptide X but not P21 or P16. HEK293 cells stably transfected with the Smad3-responsive CAGA12-lux luciferase reporter were treated for 18 hours without (−) or with (+) 100 pM TGF-β1 in the presence or absence of Peptide X (PX), P21 or P16. The peptides were previously dissolved in Tris buffer and left untreated or treated with DMSO prior to addition to the cells. Addition of Tris buffer or DMSO alone served as additional controls. Cell lysates were analyzed for luciferase activity and data are expressed as mean±standard deviation of luciferase activity. Results are shown as luciferase activity. […] P16 and P21 inhibited TGF-β1-induced CAGA12-lux activity and these effects were not enhanced by DMSO treatment. […]
# FIG. 25 is a graph showing the ability of CD109-based peptides to inhibit TGF-β-induced, Smad3-driven transcriptional activity. HEK293 cells stably transfected with the Smad3-responsive CAGA12-lux luciferase reporter were treated for 18 hours without (−) or with (+) 100 pM TGF-b1 in the presence or absence of 10 nM of P16, P16.2, peptide A, P15, P14, P13, P12, P11, peptide X, P21, or 2% NH4OH buffer (buffer control) as indicated. Cell lysates were analyzed for luciferase activity and data are expressed as mean±standard deviation of luciferase activity.
# HEK293 cells stably transfected with the Smad3-responsive CAGA12-lux luciferase reporter construct were incubated with dimeric or monomeric forms of peptide A as indicated and treated with 100 pM TGF-b overnight. Cell lysates were analyzed for luciferase activity. Data are presented as fold-activation compared to TGF-b1 treatment alone (scaled to 1.0). M+D, mixture of monomer and dimer.
# Luciferase reporter assays were performed using a HEK293-(CAGA)12 cell line that stably expresses a TGF-β/Smad3-responsive (CAGA)12-luciferase reporter gene [Cash et al. 2013]. HEK293-(CAGA)12 cells were grown in 24-well plates to 70-80% confluency and serum-starved overnight. Cells were washed with PBS and treated with or without TGF-β1 in presence or absence of various CD109-based peptides as indicated in the figure legends. Cells were then washed twice with cold PBS and solubilized in 100 μl of Passive Lysis Buffer (Promega) for 30 min at 4° C. The cell lysates were assayed for luciferase and β-galactosidase activities using commercially available kits (BD Biosciences).
# HEK293 cells stably transfected with the Smad3-responsive CAGA12-lux luciferase reporter were treated for 18 hours without (−) or with (+) 100 pM TGF-β1 in the presence or absence of 10 nM (FIG. 5A) or 5 nM (FIG. 5B) of peptide A (Pep A, 161 aa), P28 (28 aa peptide), P21 (21 aa peptide), P16 (16 aa peptide), P16.2 scrambled peptide (16 aa, scrambled P16 sequence) or Tris-buffer (negative control for peptides) as indicated. […]
sequence,measurement,setting,value
LGSSPHVRKHFPETWIWLDTNMGSRIYQEFEVTVPDSITS (Peptide X),aggregation state (aggregated versus soluble fraction),[1],existed predominantly in aggregated form
same,effect of DMSO treatment on aggregation,[1],partially decreased
same,"inhibition of TGF-β1-induced CAGA12-lux activity, peptide pre-treated with DMSO",[2],inhibited
same,"inhibition of TGF-β1-induced CAGA12-lux activity, peptide in Tris buffer left untreated",[2],did not
ETWIWLDTNMGSRIYQ [Peptide P16],aggregation state (aggregated versus soluble fraction),[1],aggregated only to a minor extent
same,effect of DMSO treatment on aggregation,[1],not altered by DMSO treatment
same,"inhibition of TGF-β1-induced CAGA12-lux activity, peptide pre-treated with DMSO",[2],not enhanced
same,"inhibition of TGF-β1-induced CAGA12-lux activity, peptide in Tris buffer left untreated",[2],inhibited
